Literature values as cited in patent US20040162315A1, “Use of compounds for treating conditions resulting from injury to the corneal nerve after LASIK and other ocular surgeries or trauma” (priority 2002, published 2004).

Tested on: axotomized ocular nerves
Conditions: single intravitreal injection of 5 μg, administered during the first five days after injury

B1: BDNF: neurotrophin family peptide, TrkB receptor-selective ligand (protein, UniProt P23560 19-247, looked up)
Neurotrophic factor BDNF …: APMKEANIRGQGGLAYPGVRTHGTLESVNGPKAGSRGLTSLADTFEHVIEELLDEDQKVRPNEENNKDADLYTSRVMLSSQVPLEPPLLFLLEEYKNYLDAANMSMRVRRHSDPARRGELSVCDSISEWVTAADKKTAVDMSGGTVTVLEKVPVSKGQLKQYFYETKCNPMGYTKEGCRGIDKRHWNSQCRTTQSYVRALTMDSKKRIGWRFIRIDTSCVCTLTIKRGR
  death of the axotomized ocular nerves: prevented the death of the axotomized ocular nerves
